For this assay, the target named is recombinant tubulin lacking the β-tubulin CTT, polymerised into microtubules (S. cerevisiae | human) (UniProt P09733). As to the kind of experiment: TIRF microscopy of single fluorescent molecules on surface-held microtubules.

This note sets out measurements from publication doi:10.1101/027631.

With “dynein-dynactin-BicD2 (DDB) complex (from UniProt Q921C5 25-400; A0A287B8J2 1-1281)”, the reduction of the frequency of processive movement relative to WT MTs worked out at 20%.
